Format in all cases: biochemical
Series [1] is described as follows: Recombinant oxidoreductase enzyme assay (E. coli-expressed, purified), substrate 1,2-dehydroreticuline. As to the method:
(§1) The coding sequences of oxidoreductase A and B (Seq ID NO 6 and NO 10, respectively) were codon optimised for expression in E. coli and the synthetic genes were cloned into the vector pET28 to yield a recombinant C-terminal 6×-His tagged enzymes (GenScript, Piscataway, N.J., USA). The constructs were transformed into E. coli Arctic express strain (Agilent Technologies, Wokingham, UK). Per construct, 3-5 freshly transformed Arctic express E. coli colonies were pre-inoculated in 10 mL 2YT medium containing 100 mg/L kanamycin and 20 mg/L gentamycin and incubated at 37° C. overnight. A 5-mL aliquot was used to inoculate 500 mL of the above medium not containing antibiotics and cells were allowed to grow at 30° C. until OD600=0.5-0.7. A 1-mL aliquot of the uninduced cells was removed and spun down at 14,000×g and the cell pellet was lysed in SDS-PAGE sample buffer. 1 mM IPTG was added to the culture and then incubated at 20° C. for 24 h. Cells were then harvested following a 5 min spin at 5,000×g and resuspended in 20 mL ice-cold extraction buffer (0.1 M Tris pH 8, 0.3 M NaCl, 0.1% (v/v) Tween 20 and Halt EDTA-free protease inhibitor cocktail (Pierce/Thermoscientific, Cramlington, UK)). Bacterial suspensions were lysed in a French Press at 4° C. using a 25 kpsi disruption cycle (Model TS0.75 KU, Constant Cell Disruption Systems, Daventry, UK). Cell lysates were then spun down at 12,000×g for 20 min at 4° C. and thus fractionated into supernatant (soluble fraction) and pellet.
(§2) A 20 mL soluble fraction was filtered through a 0.45 μm syringe filter and the His-tagged proteins were purified using a His Trap Fast Flow crude 5 mL column (GE Healthcare, Little Chalfont, UK) installed in an AKTA Purifier UPC 10 System (GE Healthcare, Sweden) at 4° C. under the following steps: column equilibration in 50 mL 0.1 M Tris pH 8, 0.3 M NaCl, 0.1% (v/v) Tween 20 at 2 mL/min; sample loading at 0.4 mL/min; column wash in 50 mL 0.1 M Tris pH 8, 0.3 M NaCl, 0.1% (v/v) Tween 20, 5 mM imidazole at 2 mL/min; elution in 100 mL 0.1 M Tris pH 8, 0.3 M NaCl, 0.1% (v/v) Tween 20, and a 10-500 mM imidazole gradient at 2 mL/min. Two mL fractions were individually collected. Protein absorbance at 280 nm was monitored throughout the purification procedure. Elution fractions showing absorbance peaks were collected and analysed through SDS-PAGE. Purified proteins (Seq ID NO 3 and 11, respectively) were quantified using Coomassie Plus Protein Assay (Pierce/Thermoscientific, Cramlington, UK) and desalted to remove any inhibitors/interferents using 10 mL Zeba Spin Desalting Columns MWCO 7K, (Pierce/Thermoscientific, Cramlington, UK) pre-equilibrated in 20 mM Potassium Phosphate buffer pH 7.
(§3) General reaction set up was carried out as previously described (Lenz & Zenk, 1995, FEBS 233:132-139). Substrates (S)-reticuline, 1,2-dehydroreticuline and coclaurine were purchased from TRC Chemicals (Toronto, Canada) and codeinone was supplied by MacFarlan-Smith (Edinburgh, UK). Assay reactions contained […], 5 μg oxidoreductase A or B preparation, 100 mM buffer covering a range of pH values (potassium phosphate pH 6-8, glycine-NaOH pH 9) and 75 μM substrate. Reactions were incubated for 2 h at 37° C. and immediately frozen at −80° C. Reactions were dried down to powder in speedvac Gene Vac EZ-2 plus (Ipswich, UK) at 40° C. and resuspended in 100 μL 1:1 Hexane:Ethanol (v/v), 0.1% Diethylamine (v/v). […]

The nature of series [2]: Recombinant oxidoreductase enzyme assay (E. coli-expressed, purified), substrate (S)-reticuline. As to the method: as §1, §2, §3
The nature of series [3]: Recombinant oxidoreductase enzyme assay (E. coli-expressed, purified), substrate coclaurine. As to the method: as §1, §2, §3
A short description of series [4]: Recombinant oxidoreductase enzyme assay (E. coli-expressed, purified), substrate codeinone. The conditions noted are these: for nmol product formation at pH 6.0 / nmol product formation at pH 7.0 / nmol product formation at pH 8.0 / nmol product formation at pH 9.0: substrate codeinone. How it is done: as §1, §2
General reaction set up was carried out as previously described (Lenz & Zenk, 1995, FEBS 233:132-139). Substrates (S)-reticuline, 1,2-dehydroreticuline and coclaurine were purchased from TRC Chemicals (Toronto, Canada) and codeinone was supplied by MacFarlan-Smith (Edinburgh, UK). Assay reactions contained […], 5 μg oxidoreductase A or B preparation, 100 mM buffer covering a range of pH values (potassium phosphate pH 6-8, glycine-NaOH pH 9) and 75 μM substrate. Reactions were incubated for 2 h at 37° C. and immediately frozen at −80° C. Reactions were dried down to powder in speedvac Gene Vac EZ-2 plus (Ipswich, UK) at 40° C. and resuspended in 100 μL 1:1 Hexane:Ethanol (v/v), 0.1% Diethylamine (v/v).
Chiral separations were performed following the method previously described (Iwasa et al., 2009, Phytochem 70:198-206) and carried out on a TSP HPLC system equipped with a UV6000 LP detector, a P4000 pump and an AS 3000 autosampler (Thermo Separation Products/Thermoscientific, Waltham, Mass., USA) connected to a mass spectrometer LCQ Classic mass spectrometer (Finnigan Mat, San Jose, Calif., USA). A Lux 5μ Cellulose 3 250×4.6 mm column (Phenomenex, Macclesfield, UK) was used for separations. […]

Series [5] is described as follows: Enzyme assay on soluble/microsomal preparations of S. cerevisiae expressing STORR fusion or modules, substrate 1,2-dehydroreticuline. The conditions noted are these: soluble or microsomal preparations from S. cerevisiae; 100 μM substrate, 1 mM NADPH, 37° C. 3 hours. The text has this:
Genscript created synthetic DNA sequences were created for PsCPR [Genbank accession AAC05021, (Rosco A. et al. (1997) Arch. Biochem. Biophys. 348, 369-77), the full length STORR (CYP82Y2-Oxidoreductatse (“Oxired”)) protein, the N-terminal CYP82Y2 module and C-terminal oxidoreductase (Oxidoreductase) module, that were codon optimised for expression is Saccharomyces cerevisiae. The codon-optimized sequences are provided with the SEQ ID NO 30-33.
Expression vector pESC-TRP::soloxired was created by digesting the corresponding PCR product with NotI and PacI and inserting this behind the GAL10 promoter of pESC-TRP. pESC-TRP::CPR was created by digesting the corresponding PCR product with BamHI and XhoI and inserting this behind the GAL1 promoter of pESC-TRP. This was then used to created pESC-TRP::CPR::CYP82Y2 and pESC-TRP::CPR::CYP82Y2-Oxidoreductase. These plasmids were then transformed in S. cerevisiae G175 (Sorger D. et al. (2004) J. Biol. Chem. 279, 31190-6) using lithium acetate protocol (Geitz R. D. and Woods R. A. (2002) Methods in Enzymology 350, 87-96). Yeasts were cultivated in Synthetic Defined (SD) medium composed of 2% carbon source, 0.5% ammonium sulfate, 1.7 g L^−1 yeast nitrogen base (without amino acids and ammonium sulfate) and 1.92 g L^−1 or tryptophan drop-out supplement (Sigma-Aldrich, Gillingham, UK). Cultures grown using glucose as a carbon source were used to inoculate 200 ml cultures with raffinose as a carbon source to an OD 600 nm of 0.10 in 1 L conical flasks. […]
Enzymes assays were set up in 250 μL volumes containing final concentrations of 50 mM Bis-tris propane buffer, 1 mM NADPH and 100 μM of substrate. […] The extract was then dissolved in 100 μL of 50:50:0.1 hexane/ethanol/diethylamine and analysed by the chiral HPLC method to determine the relative amounts of (R)- and (S)-reticuline.
Poppy capsules were processed and analysed by UPLC-MS and R-scripts as previously described (“the standard method”; (Winzer T. et al. (2012) Science 336, 1704-8)). […]

[6] abbreviates: NADPH dependent reduction, pH 6 to 9.
Setting [7] is: product neopine, triplicate mean ± SD.

B1: Oxidoreductase B: Recombinant His-tagged close homologue (96% amino acid identity) of oxidoreductase A (SEQ ID NO 11), expressed in E. coli (protein, listed as Papaver somniferum)
chain: MESSGVPVITLSSGKLMPVLGMGTFEKVGKGSERERLVILKAIEVGYRYFDTAAAYETEEVLGEAIAEALQLGLIKSRDELFISSMLWCTDAHPDRVLLALQNSLRNLKLEYLDLYMLPFPVSLKPGKITMDIQEEDICRMDYRSVWAAMEECQNLGFTKSIGVSNFSCKKLQELMATANIPPDVNQVEMSPAFQQKKLRDYCNANNILVSAVSILGSNGTPWGSNAVLGSEVLRKIAMAKGKSVAQVSMRWVYDQGASLVVKSFSEERLRENLNIFDWELTKEDHEKIGEIPQCRILSAYFLVSPNGPFKSQEELWDDEA
modifications: His tag
As to B1, the “conversion of 1,2-dehydroreticuline to (R)-reticuline (in words)” value in series [1] (pH 6 to 9) is on record as “efficiently converted”. Moreover, the “nmol product formation at pH 6.0” value in series [1] (substrate dehydroreticuline, product (R)-reticuline, pH 6.0, triplicate mean ± SD) came to 0.148 ± 0.036 nmol; in series [2] (substrate (S)-reticuline, expected product dehydroreticuline, pH 6.0), 0.0 nmol; in series [3] (substrate coclaurine, no product observed, pH 6.0, 75 μM substrate, NADPH, 2 h 37° C., triplicate mean ± SD), 0.0 nmol; in series [4] (product codeine), 0.0 nmol; in series [4] (setting [7]) it was 0.040 ± 0.020 nmol. Further, the “nmol product formation at pH 7.0” value in series [1] (substrate dehydroreticuline, product (R)-reticuline, pH 7.0, triplicate mean ± SD) was 0.130 ± 0.021 nmol; in series [2] (substrate (S)-reticuline, expected product dehydroreticuline, pH 7.0), 0.0 nmol; in series [3] (substrate coclaurine, no product observed, pH 7.0), 0.0 nmol; in series [4] (product codeine), 0.0 nmol; in series [4] (setting [7]), 0.005 ± 0.001 nmol. Moreover, the “nmol product formation at pH 8.0” value in series [1] (substrate dehydroreticuline, product (R)-reticuline, pH 8.0, triplicate mean ± SD) is 0.164 ± 0.020 nmol; in series [2] (substrate (S)-reticuline, expected product dehydroreticuline, pH 8.0) it was 0.0 nmol; in series [3] (substrate coclaurine, no product observed, pH 8.0) it was 0.0 nmol; in series [4] (product codeine), 0.0 nmol; in series [4] (setting [7]), 0.016 ± 0.008 nmol. Also, the “nmol product formation at pH 9.0” value turned out to be 0.202 ± 0.026 nmol in series [1] (substrate dehydroreticuline, product (R)-reticuline, pH 9.0, triplicate mean ± SD); 0.0 nmol in series [2] (substrate (S)-reticuline, expected product dehydroreticuline, pH 9.0); 0.0 nmol in series [3] (substrate coclaurine, no product observed, pH 9.0); 0.0 nmol in series [4] (product codeine, triplicate mean ± SD); 0.000 nmol in series [4] (product neopine). The “transformation of the substrate (S)-reticuline (in words)” value in series [2] (pH 6 to 9) was “no transformation of the substrate”. The “transformation of the substrate coclaurine (in words)” value in series [3] (pH 6 to 9) is recorded as “no transformation of the substrate”. Besides, in series [4] (setting [6]), the “formation of codeine from codeinone (in words)” value is “did not form codeine”. Also, the “formation of neopine from codeinone (in words)” value in series [4] (setting [6]) is given as “neopine production within pH values 6 to 8”.

B2: oxidoreductase module: C-terminal oxidoreductase module of STORR (codon optimized SEQ ID NO 33) expressed in S. cerevisiae (protein)
chain: MESSGVPVITLGSGKVMPVLGMGTFEKVGKGSERERLAILKAIEVGYRYFDTAAAYETEEVLGEAIAEALQLGLVKSRDELFISSMLWCTDAHADRVLLALQNSLRNLKLEYVDLYMLPFPASLKPGKITMDIPEEDICRMDYRSVWAAMEECQNLGFTKSIGVSNFSCKKLQELMATANIPPAVNQVEMSPAFQQKKLREYCNANNILVSAISVLGSNGTPWGSNAVLGSEVLKKIAMAKGKSVAQVSMRWVYEQGASLVVKSFSEERLRENLNIFDWELTKEDHEKIGEIPQCRILSAYFLVSPNGPFKSQEELWDDEA
modifications: Yeast codon optimised Oxidoreductase
In the case of B2, the “conversion efficiency of 1,2-dehydroreticuline to (R)-reticuline” value in series [5] worked out at 100%.

Source of the values: patent US10006010B2, “Cytochrome P450 fusion protein” (The University of York, priority 2014, dated 2018).
